What was measured:
[1] = system: gamma secretase; assay: Chimeric Notch receiver cell activation by CD19 sender cells with or without gamma secretase inhibitor DAPT; format: cell-based, mouse; conditions: sender cells expressing CD19, 1 mM DAPT
Description: DAPT is a gamma secretase inhibitor. The data are expressed as GFP^+ “receiver” cells.
(FIG. 86A) Mouse fibroblasts (L929 line) with anti-CD19/tTA synNotch are cultivated with sender cells expressing Delta, or CD19, or CD19 in the presence of the gamma-secretase inhibitor DAPT. FACS plots of the resulting GFP intensity in receiver cells are shown.

[2] = system: K562 cells; assay: Sensitivity of cancer cell line to recombinant TRAIL; format: cell-based
Description: (§1) The cells were then harvested and stained with the live/dead stain, SYTOX Blue (Thermo Scientific # S34857) and the fraction of dead cells was determined by flow cytometry on a BD LSR II.

[3] = system: HCT116 colon cancer cells; assay: as above; format: cell-based
Description: as §1

Molecule: C[C@H](NC(=O)Cc1cc(F)cc(F)c1)C(=O)NC(C(=O)OC(C)(C)C)c1ccccc1 (stereo partly drawn) [DAPT]
- GFP+ receiver cells [1]: at control, untreated levels

B1: soluble TRAIL: recombinant TRAIL, an inducer of apoptosis and a cancer therapeutic (protein, UniProt P50591 39-281, looked up)
extracellular domain: TNELKQMQDKYSKSGIACFLKEDDSYWDPNDEESMNSPCWQVKWQLRQLVRKMILRTSEETISTVQEKQQNISPLVRERGPQRVAAHITGTRGRSNTLSSPNSKNEKALGRKINSWESSRSGHSFLSNLHLRNGELVIHEKGFYYIYSQTYFRFQEEIKENTKNDKQMVQYIYKYTSYPDPILLMKSARNSCWSKDAEYGLYSIYQGGIFELKENDRIFVSVTNEHLIDMDHEASFFGAFLVG
modifications: extracellular domain
notes: recombinant TRAIL, an inducer of apoptosis and a cancer therapeutic
- induction of apoptosis [2]: does not induce apoptosis even at high doses
- cell killing [3]: effective at killing

From patent US10590182B2, “Binding-triggered transcriptional switches and methods of use thereof” (The Regents of the University of California, priority 2015, dated 2020)
